Experimental data from article PMC6735679.
Read-outs that look alike come from different tables or passages of the source.

Experiments:
CNBP [1] = biological target: T1, CNBP (Homo sapiens, UniProt P62633 1-177); test: EMSA
CNBP [2] = biological target: T1, CNBP; test: EMSA; remark: listed apart in the source

T1 sequence (P62633 whole entry): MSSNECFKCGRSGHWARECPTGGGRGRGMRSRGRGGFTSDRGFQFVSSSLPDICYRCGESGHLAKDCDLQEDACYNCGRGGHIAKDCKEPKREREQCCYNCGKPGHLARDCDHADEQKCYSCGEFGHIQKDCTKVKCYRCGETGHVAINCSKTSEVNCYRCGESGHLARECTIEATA

Binder	binding result (CNBP [1])	binding result (CNBP [2])
TGGGGT (ssDNA) [TG4T (single strand)]	no binding	
GAGGGGGAGGGGGG (ssDNA) [C14]		binds
